According to patent US20190256592A1 (GENAGON THERAPEUTICS, published 2019):

Experiments:
[1] = biological target: Cleft Lip and Palate Transmembrane protein 1 (CLPTM1), human, native, in cells (human) (UniProt O96005); experiment: flow cytometry on permeabilised O-876 cells expressing native CLPTM1, 10x dilution series
[2] = biological target: Cleft Lip and Palate Transmembrane protein 1 (CLPTM1), human, native, in cells (human) (UniProt O96005); experiment: flow cytometry on permeabilised O-876 cells expressing native CLPTM1
[3] = biological target: T1, YEQSDEEQDSVKVALLETNPG (biotinylated; C-terminal glycine not from CLPTM1); experiment: ELISA: biotinylated CLPTM1 peptide on streptavidin plate, GDF15 at 100 ng/ml, detected with goat anti-GDF15 and anti-goat-HRP
T1 construct: also called G18
T1 peptide: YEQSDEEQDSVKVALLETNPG
Method: (§1) Biotinylated synthetic peptide fragments from CLPTM1 (JPT peptides, Germany) were immobilized in a streptavidin 96 well plate (#15500 Pierce) at 1 μM in PBS overnight at +4° C. Plate was washed 4 times in 300 μl PBS with 0.05% Tween-20 (wash buffer). The plate was blocked with PBS 1% BSA and 0.05% Tween-20 (blocking buffer) for 1.5 hours at room temperature then washed 4 times in wash buffer. GDF15 ligand (Abcam) was added in blocking buffer at 100 ng/ml and incubated at room temperature for 2 hours. The plate was then washed 8 times in 300 μl wash buffer with 2×NaCl. A GDF15 antibody as added at 1 μg/ml (R&D systems goat polyclonal) and incubated in block buffer for 1 hour at room temperature followed by washing with 4×300 μl wash buffer. HAF017 anti-goat-HRP antibody was added and incubated for 1 hour in blocking buffer followed by a wash. TMB substrate was added and stopped after 15 minutes with H2SO4. OD 450-620 was measured in an ELISA reader.
(§2) Polypeptides having sequences set forth in SEQ ID NOs:10-33 were assessed for binding to GDF15 (corresponding to the polypeptides indicated from left to right in FIG. 2 and shown in Table 1). These proteins were synthesised with a C-terminal glycine residue that is not present in the corresponding sequences from CLPTM1.

[4] = biological target: T2, CLPTM1 peptide G9 (residues 162-181 with C-terminal glycine) (human, biotinylated (position not given)); experiment: as above
T2 construct: Biotinylated synthetic peptide on a streptavidin plate; The C-terminal glycine is not in CLPTM1
T2 peptide: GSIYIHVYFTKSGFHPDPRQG
Method: as §1, §2

[5] = biological target: T3, QNPPAQPAPNAWQVIKGVLFG (biotinylated; C-terminal glycine not from CLPTM1); experiment: as above
T3 construct: also called G3
T3 peptide: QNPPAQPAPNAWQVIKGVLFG
Method: as §1, §2

[6] = biological target: T4, SGQVTSNGSIGRDPPAETQPG (biotinylated; C-terminal glycine not from CLPTM1); experiment: as above
T4 construct: also called G2
T4 peptide: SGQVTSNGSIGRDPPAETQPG
Method: as §1, §2

[7] = biological target: T5, LWRWQLYAAQSTKSPWNFLGG (biotinylated; C-terminal glycine not from CLPTM1); experiment: as above
T5 construct: also called G19
T5 peptide: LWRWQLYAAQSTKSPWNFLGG
Method: as §1, §2

[8] = biological target: T6, SALFWEQHDLVYGDWTSGENG (biotinylated; C-terminal glycine not from CLPTM1); experiment: as above
T6 construct: also called G7
T6 peptide: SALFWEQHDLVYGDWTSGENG
Method: as §1, §2

[9] = biological target: T7, WQVIKGVLFRIFIIWAISSWG (biotinylated; C-terminal glycine not from CLPTM1); experiment: as above
T7 construct: also called G22
T7 peptide: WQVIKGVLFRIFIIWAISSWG
Method: as §1, §2

[10] = biological target: T8, QAGPGGAPRVASRNLFPKDTG (biotinylated; C-terminal glycine not from CLPTM1); experiment: as above
T8 construct: also called G5
T8 peptide: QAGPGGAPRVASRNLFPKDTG
Method: as §1, §2

[11] = biological target: T9, CLPTM1 peptide G21 (residues 273-292 with C-terminal glycine) (human, biotinylated (position not given)); experiment: as above
T9 construct: Biotinylated synthetic peptide on a streptavidin plate; The C-terminal glycine is not in CLPTM1
T9 peptide: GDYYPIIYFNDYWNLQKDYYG
Method: as §1, §2

[12] = biological target: T10, AAAQEADGARSAVVAAGGGSG (biotinylated; C-terminal glycine not from CLPTM1); experiment: as above
T10 construct: also called G1
T10 peptide: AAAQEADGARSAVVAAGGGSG
Method: as §1, §2

[13] = biological target: T11, RIFIIWAISSWFRRGPAPQDG (biotinylated; C-terminal glycine not from CLPTM1); experiment: as above
T11 construct: also called G4
T11 peptide: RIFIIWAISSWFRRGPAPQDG
Method: as §1, §2

[14] = biological target: T12, RRRFQKTKNLLTGETEADPEG (biotinylated; C-terminal glycine not from CLPTM1); experiment: as above
T12 construct: also called G11
T12 peptide: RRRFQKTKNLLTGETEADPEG
Method: as §1, §2

[15] = biological target: T13, NDYWNLQKDYYPINESLASLG (biotinylated; C-terminal glycine not from CLPTM1); experiment: as above
T13 construct: also called G15
T13 peptide: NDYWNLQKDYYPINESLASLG
Method: as §1, §2

[16] = biological target: T14, SDGCYEHFAELDIPQSVQQNG (biotinylated; C-terminal glycine not from CLPTM1); experiment: as above
T14 construct: also called G8
T14 peptide: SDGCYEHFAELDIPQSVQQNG
Method: as §1, §2

[17] = biological target: T15, CLPTM1 peptide G10 (residues 182-201 with C-terminal glycine) (human, biotinylated (position not given)); experiment: as above
T15 construct: Biotinylated synthetic peptide on a streptavidin plate; The C-terminal glycine is not in CLPTM1
T15 peptide: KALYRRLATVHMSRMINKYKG
Method: as §1, §2

[18] = biological target: T16, CLPTM1 peptide G14 (residues 262-281 with C-terminal glycine) (human, biotinylated (position not given)); experiment: as above
T16 construct: Biotinylated synthetic peptide on a streptavidin plate; The C-terminal glycine is not in CLPTM1
T16 peptide: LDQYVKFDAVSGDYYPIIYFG
Method: as §1, §2

[19] = biological target: T17, CLPTM1 peptide G20 (residues 292-311 with C-terminal glycine) (human, biotinylated (position not given)); experiment: as above
T17 construct: Biotinylated synthetic peptide on a streptavidin plate; The C-terminal glycine is not in CLPTM1
T17 peptide: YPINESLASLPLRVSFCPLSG
Method: as §1, §2

[20] = biological target: T18, MIKRAEDYGPVEVISHWHPNG (biotinylated; C-terminal glycine not from CLPTM1); experiment: as above
T18 construct: also called G12
T18 peptide: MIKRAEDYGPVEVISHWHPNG
Method: as §1, §2

[21] = biological target: T19, …; experiment: as above
T19 sequence (peptide, biotinylated; C-terminal glycine not from CLPTM1): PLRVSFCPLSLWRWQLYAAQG

[22] = biological target: T20, …; experiment: as above; remark: listed apart in the source
T20 sequence (peptide, biotinylated; C-terminal glycine not from CLPTM1): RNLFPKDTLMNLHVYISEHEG

[23] = biological target: T21, …; experiment: as above; remark: listed apart in the source
T21 sequence (peptide, biotinylated; C-terminal glycine not from CLPTM1): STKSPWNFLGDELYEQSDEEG

[24] = biological target: T22, …; experiment: as above; remark: listed apart in the source
T22 sequence (peptide, biotinylated; C-terminal glycine not from CLPTM1): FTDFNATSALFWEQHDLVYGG

[25] = biological target: T23, …; experiment: as above; remark: listed apart in the source
T23 sequence (peptide, biotinylated; C-terminal glycine not from CLPTM1): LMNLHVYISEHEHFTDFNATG

[26] = biological target: T24, Cleft Lip and Palate Transmembrane protein 1 (CLPTM1), human, native, in cells (human, UniProt O96005 2-669); experiment: flow cytometry on permeabilised O-876 cells expressing native CLPTM1
T24 construct: Native CLPTM1 as expressed by cells; also called CLPTM1 receptor
T24 sequence: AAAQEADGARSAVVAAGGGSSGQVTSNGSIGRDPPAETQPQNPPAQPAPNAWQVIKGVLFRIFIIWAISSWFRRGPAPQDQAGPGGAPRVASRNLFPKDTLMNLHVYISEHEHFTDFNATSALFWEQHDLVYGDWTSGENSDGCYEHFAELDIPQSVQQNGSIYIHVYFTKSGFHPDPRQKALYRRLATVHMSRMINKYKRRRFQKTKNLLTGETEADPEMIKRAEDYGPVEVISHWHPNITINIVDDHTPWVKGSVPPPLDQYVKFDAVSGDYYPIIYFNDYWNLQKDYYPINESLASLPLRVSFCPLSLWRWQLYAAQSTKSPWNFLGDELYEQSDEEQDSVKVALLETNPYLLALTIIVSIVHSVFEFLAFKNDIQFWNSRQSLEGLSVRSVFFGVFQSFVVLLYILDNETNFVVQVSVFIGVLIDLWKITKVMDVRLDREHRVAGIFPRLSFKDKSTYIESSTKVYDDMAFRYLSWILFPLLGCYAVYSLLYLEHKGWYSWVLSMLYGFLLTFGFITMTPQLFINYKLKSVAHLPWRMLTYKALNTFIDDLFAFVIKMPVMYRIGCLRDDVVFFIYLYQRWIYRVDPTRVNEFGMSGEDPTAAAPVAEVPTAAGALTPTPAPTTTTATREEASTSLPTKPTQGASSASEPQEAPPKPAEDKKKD
Method: (§3) Affinity of antibodies was determined by finding the half-maximal binding on the native target in a flow cytometry assay. Since the native target is found inside most cells and rarely on the cell surface, the assay was performed using plasma membrane-permeabilized cells, an intra-cellular staining protocol. Using the native target is more applicable when evaluating and comparing various antibodies as it is the true antigen to be bound in a therapeutic setting in vivo. 0-876 cells were permeabilized with BD-fix and permeabilization buffer (554722 BD-Biosciences). Antibody at various concentrations was incubated with cells for 30 minutes at +4 C, then washed twice with wash buffer (BD-Biosciences 554723). Secondary antibodies a-mouse IgG-PE (Molecular Probes) was used for mouse monoclonal antibodies according to manufacturer's instructions and a-rabbit-IgG-PE (Molecular Probes) for rabbit monoclonal antibody (Abcam ERP8800). Three washes followed and fluorescence intensity in cells was quantified by FACS Cantoll in PBS with cells in 2% FCS buffer.
(§4) The assay was performed on 0-876 cancer cell line.

[27] = biological target: T24, Cleft Lip and Palate Transmembrane …; experiment: flow cytometry on permeabilised O-876 cells expressing native CLPTM1; Kd defined by half maximal binding
Method: as §3, §4

Molecule: Santa Cruz mouse anti-human CLPTM1 monoclonal antibody (G-7) (sc-374619)
- percent of maximum binding at 1 µg/ml [1]: < 50%

Molecule: AbCam anti-CLPTM1 rabbit monoclonal antibody EPR8800 (RabMab)
- percent of maximal binding at 1 µg/mL [2]: > 50%
- percent of maximum binding at 0.1 µg/ml [1]: > 50%

B1: Growth and Differentiation Factor 15 (GDF15) (ligand, UniProt Q99988 197-308, looked up)
chain: ARNGDHCPLGPGRCCRLHTVRASLEDLGWADWVLSPREVQVTMCIGACPSQFRAANMHAQIKTSLHRLKPDTVPAPCCVPASYNPMVLIQKTDTGVSLQTYDDLLAKDCHCI
notes: Bought protein (Abcam); also called MIC-1; GDF15 ligand (Abcam)
- OD ELISA 450nm - 620nm [3]: 0.022 OD
- OD ELISA 450nm - 620nm [4]: 0.149 OD
- OD ELISA 450nm - 620nm [5]: 0.042 OD
- OD ELISA 450nm - 620nm [6]: 0.009 OD
- OD ELISA 450nm - 620nm [7]: 0.033 OD
- OD ELISA 450nm - 620nm [8]: 0.034 OD
- OD ELISA 450nm - 620nm [9]: 0.023 OD
- OD ELISA 450nm - 620nm [10]: 0.034 OD
- OD ELISA 450nm - 620nm [11]: 0.507 OD
- OD ELISA 450nm - 620nm [12]: 0.022 OD
- OD ELISA 450nm - 620nm [13]: 0.026 OD
- OD ELISA 450nm - 620nm [14]: 0.021 OD
- OD ELISA 450nm - 620nm [15]: 0.038 OD
- OD ELISA 450nm - 620nm [16]: 0.024 OD
- OD ELISA 450nm - 620nm [17]: 0.197 OD
- OD ELISA 450nm - 620nm [18]: 0.14 OD
- OD ELISA 450nm - 620nm [19]: 0.22 OD
- OD ELISA 450nm - 620nm [20]: 0.028 OD
- OD ELISA 450nm - 620nm [21]: 0.063 OD
- OD ELISA 450nm - 620nm [22]: 0.055 OD
- OD ELISA 450nm - 620nm [23]: 0.053 OD
- OD ELISA 450nm - 620nm [24]: 0.061 OD
- OD ELISA 450nm - 620nm [25]: 0.058 OD

B2: Mouse monoclonal anti-CLPTM1 antibody 7G12 (antibody, V domains shown)
VH: QVQLQQSGTELVRPGTSVKVSCKASGYAFTNYLIEWVKQRPGQGLEWIGVINPGSGGTRYNEKFKGKATLTADKSSTTAHMQLSSLTSDDSAVYCARWGGNYSGYAMDYWGQGTSVTVSS
VL: QIVLTQSPVIMSASPGEKVTITCSASSSVSYMHWFQQKPGTSPKLWIYSTSNLASGVPARFSGSGSGTSYSLTISRMEAEDAATYYCQQRSSYPPTFGAGTKL
notes: Mouse IgG1 heavy chain, kappa light chain; also called mAb 7G12; 7G12hyb
- EC50 [26]: < 1 µg/mL
- Kd [27]: < 1 nM
